The target of data set [1] is T1, GST-LGN/GPSM2 wild type, full-length recombinant (pGEX 6P-2-LGN/GPSM2, E. coli).
T1 chain: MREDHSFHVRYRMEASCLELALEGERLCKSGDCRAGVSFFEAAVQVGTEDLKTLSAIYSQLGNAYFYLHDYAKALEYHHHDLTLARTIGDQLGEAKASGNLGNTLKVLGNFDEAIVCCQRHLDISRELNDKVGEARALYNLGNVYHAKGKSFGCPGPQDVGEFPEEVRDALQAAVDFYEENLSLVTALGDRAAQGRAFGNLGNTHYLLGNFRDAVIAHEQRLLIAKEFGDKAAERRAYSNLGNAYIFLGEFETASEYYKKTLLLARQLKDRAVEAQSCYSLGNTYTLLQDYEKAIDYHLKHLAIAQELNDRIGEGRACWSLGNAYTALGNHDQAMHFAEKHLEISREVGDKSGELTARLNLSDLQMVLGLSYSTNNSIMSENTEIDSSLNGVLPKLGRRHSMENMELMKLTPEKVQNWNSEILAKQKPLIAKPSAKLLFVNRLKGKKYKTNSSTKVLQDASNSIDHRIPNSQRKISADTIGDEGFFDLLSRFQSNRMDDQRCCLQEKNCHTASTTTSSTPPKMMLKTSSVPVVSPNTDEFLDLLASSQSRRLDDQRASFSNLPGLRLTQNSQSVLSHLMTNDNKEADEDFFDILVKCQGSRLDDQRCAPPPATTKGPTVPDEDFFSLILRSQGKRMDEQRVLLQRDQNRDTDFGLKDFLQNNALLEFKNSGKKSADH

Data set [2] deals with T2, His-tagged full-length recombinant LGN/GPSM2 (pET28a-LGN/GPSM2, E. coli).
T2 chain: T1 chain

B1: recombinant Aurora kinase B (SignalChem) (protein)
chain: MAQKENSYPWPYGRQTAPSGLSTLPQRVLRKEPVTPSALVLMSRSNVQPTAAPGQKVMENSSGTPDILTRHFTIDDFEIGRPLGKGKFGNVYLAREKKSHFIVALKVLFKSQIEKEGVEHQLRREIEIQAHLHHPNILRLYNYFYDRRRIYLILEYAPRGELYKELQKSCTFDEQRTATIMEELADALMYCHGKKVIHRDIKPENLLLGLKGELKIADFGWSVHAPSLRRKTMCGTLDYLPPEMIEGRMHNEKVDLWCIGVLCYELLVGNPPFESASHNETYRRIVKVDLKFPASVPMGAQDLISKLLRHNPSERLPLAQVSAHPWVRANSRRVLPPSALQSVA
B1: the “in vitro kinase assay (autoradiography, [gamma-32P]-ATP)” value with GST-LGN/GPSM2 S401A is “Substitution of serine 401 to alanine distinguished the phosphorylation of GST-LGN/GPSM2 by both Aurora kinase A and B”; in data set [1], “the phosphorylation of GST-LGN/GPSM2 by both Aurora kinase A and B”.

B2: recombinant Aurora kinase A (SignalChem) (protein)
chain: MDRSKENCISGPVKATAPVGGPKRVLVTQQFPCQNPLPVNSGQAQRVLCPSNSSQRIPLQAQKLVSSHKPVQNQKQKQLQATSVPHPVSRPLNNTQKSKQPLPSAPENNPEEELASKQKNEESKKRQWALEDFEIGRPLGKGKFGNVYLAREKQSKFILALKVLFKAQLEKAGVEHQLRREVEIQSHLRHPNILRLYGYFHDATRVYLILEYAPLGTVYRELQKLSKFDEQRTATYITELANALSYCHSKRVIHRDIKPENLLLGSAGELKIADFGWSVHAPSSRRTTLCGTLDYLPPEMIEGRMHDEKVDLWSLGVLCYEFLVGKPPFEANTYQETYKRISRVEFTFPDFVTEGARDLISRLLKHNPSQRPMLREVLEHPWITANSSKPSNCQNKESASKQS
As for B2, the “in vitro kinase assay (autoradiography, [gamma-32P]-ATP)” value was “Substitution of serine 401 to alanine distinguished the phosphorylation of GST-LGN/GPSM2 by both Aurora kinase A and B” with GST-LGN/GPSM2 S401A; “the phosphorylation of GST-LGN/GPSM2 by both Aurora kinase A and B” in data set [1].

B3: recombinant full-length PBK/TOPK (Invitrogen) (protein)
chain: MEGISNFKTPSKLSEKKKSVLCSTPTINIPASPIMQKLGFGTGVNVYLMKRSPRGLSHSPWAVKKINPICNDHYRSVYQKRLMDEAKILKSLHHPNIVGYRAFTEASDGSLCLAMEYGGEKSLNDLIEERYKASQDPFPAAIILKVALNMARGLKYLHQEKKLLHGDIKSSNVVIKGDFETIKICDVGVSLPLDENMTVTDPEACYIGTEPWKPKEAVEENGVITDKADIFAFGLTLWEMMTLSIPHINLSNDDDDEDKTFDESDFDDEAYYAALGTRPPINMEELDESYQKVIELFSVCTNEDPKDRPSAAHIVEALETDV
For the protein B3, in data set [2], the “in vitro kinase assay (western blot with anti-phosphorylated threonine antibody)” value is reported as “found phosphorylation of the LGN/GPSM2 protein by PBK/TOPK in vitro (FIG. 8B)”. Also, in data set [1], the “in vitro kinase assay (autoradiography, [gamma-32P]-ATP)” value is recorded as “The autoradiography images also showed phosphorylation of the LGN/GPSM2 protein by PBK/TOPK (FIG. 8C)”; the “in vitro kinase assay with GST-LGN/GPSM2 WT and alanine substitutes (autoradiography)” value is reported as “PBK/TOPK, which was has been shown to phosphorylate LGN/GPSM2 in FIG. 8, did not phosphorylate these amino acids identified here (FIG. 10C)”.

The record behind these values is patent US20110313018.
